In patent publication US20150344570A1 (published 2015):

T1: FcγRIIa H (human, UniProt P12318 34-217)
T1 construct: extracellular domain; also called FcγRIIa type H; 2aH
T1 sequence (looked up): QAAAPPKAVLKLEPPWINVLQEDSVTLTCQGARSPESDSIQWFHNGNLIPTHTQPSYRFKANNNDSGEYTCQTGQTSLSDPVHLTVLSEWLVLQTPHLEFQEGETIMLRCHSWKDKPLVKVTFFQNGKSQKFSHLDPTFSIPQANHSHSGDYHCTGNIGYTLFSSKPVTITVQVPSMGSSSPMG

T2: FcγRIIb (human, UniProt P31994 43-217)
T2 construct: extracellular domain; also called 2b; FcgRIIb
T2 sequence (looked up): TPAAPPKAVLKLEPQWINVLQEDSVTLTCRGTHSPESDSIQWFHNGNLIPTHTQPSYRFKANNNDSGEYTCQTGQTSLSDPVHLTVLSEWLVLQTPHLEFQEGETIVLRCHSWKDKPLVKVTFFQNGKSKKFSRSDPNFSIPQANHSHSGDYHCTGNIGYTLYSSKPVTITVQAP

B1: GpH7-A5/GpH7-B3 variant S298_07I/GpL16-k0 (antibody, human IgG1, kappa)
heavy 1: not shown
heavy 2: not shown
light: DIVMTQSPLSLPVTPGEPASISCQASESLVHSNRNTYLHWYLQKPGQSPQLLIYKVSNRFSGVPDRFSGSGSGTDFTLKISRVEAEDVGVYYCSQNTHVPPTFGQGTKVEIERTVAAPSVFIFPPSDEQLKSGTASVVCLLNNFYPREAKVQWKVDNALQSGNSQESVTEQDSKDSTYSLSSTLTLSKADYEKHKVYACEVTHQGLSSPVTKSFNRGEC
notes: Heterodimerized anti-glypican-3 IgG1 (He Ab); mutation in the B3 H chain only; also called He Ab
B2: GpH7-A5/GpH7-B3 variant Y300_01G/GpL16-k0 (antibody, human IgG1, kappa)
heavy 1: not shown
heavy 2: not shown
light: B1 light
notes: as for B1
B3: GpH7-A5/GpH7-B3 variant Y300_07I/GpL16-k0 (antibody, human IgG1, kappa)
heavy 1: not shown
heavy 2: not shown
light: B1 light
notes: as for B1
B4: GpH7-A5/GpH7-B3 variant Y300_06M/GpL16-k0 (antibody, human IgG1, kappa)
heavy 1: not shown
heavy 2: not shown
light: B1 light
notes: as for B1
B5: GpH7-A5/GpH7-B3 variant S298_16H/GpL16-k0 (antibody, human IgG1, kappa)
heavy 1: not shown
heavy 2: not shown
light: B1 light
notes: as for B1
B6: GpH7-A5/GpH7-B3 variant S298_18N/GpL16-k0 (antibody, human IgG1, kappa)
heavy 1: not shown
heavy 2: not shown
light: B1 light
notes: as for B1
B7: GpH7-A5/GpH7-B3 variant S298_19Q/GpL16-k0 (antibody, human IgG1, kappa)
heavy 1: not shown
heavy 2: not shown
light: B1 light
notes: as for B1
B8: GpH7-A5/GpH7-B3 variant Y300_03V/GpL16-k0 (antibody, human IgG1, kappa)
heavy 1: not shown
heavy 2: not shown
light: B1 light
notes: as for B1
B9: GpH7-A5/GpH7-B3 variant Y300_11K/GpL16-k0 (antibody, human IgG1, kappa)
heavy 1: not shown
heavy 2: not shown
light: B1 light
notes: as for B1
B10: GpH7-A5/GpH7-B3 variant S298_14T/GpL16-k0 (antibody, human IgG1, kappa)
heavy 1: not shown
heavy 2: not shown
light: B1 light
notes: as for B1
B11: GpH7-A5/GpH7-B3 variant S298_10E/GpL16-k0 (antibody, human IgG1, kappa)
heavy 1: not shown
heavy 2: not shown
light: B1 light
notes: as for B1
B12: GpH7-A5/GpH7-B3 variant Y300_02A/GpL16-k0 (antibody, human IgG1, kappa)
heavy 1: not shown
heavy 2: not shown
light: B1 light
notes: as for B1
B13: GpH7-A5/GpH7-B3 variant Y300_08L/GpL16-k0 (antibody, human IgG1, kappa)
heavy 1: not shown
heavy 2: not shown
light: B1 light
notes: as for B1
B14: GpH7-A5/GpH7-B3 variant S298_20W/GpL16-k0 (antibody, human IgG1, kappa)
heavy 1: not shown
heavy 2: not shown
light: B1 light
notes: as for B1

Key:
FcγRIIa H [1] = molecular target: T1, FcγRIIa H; experiment: ratio of He/Con_2aH to He/Con_2b (FcγRIIb); SPR
FcγRIIa H [2] = molecular target: T1, FcγRIIa H; experiment: SPR (Biacore), captured antibody, FcγR as analyte; GpH7-A5/GpH7-B3/GpL16-k0 = 100
Method: (§1) The heterodimerized antibodies He Abs in which one of the H chains was introduced with an alteration were assayed for their binding activities to each activating FcγR and inhibitory FcγR according to the method described in Example 4. […] The activating FcγRs in FIGS. 26, 27, 28, and 29 are FcγRIa, FcγRIIa (R), FcγRIIa (H), and FcγRIIIa, respectively.
(§2) Analysis of interaction between objective antibody and the FcγR was carried out using Biacore T100 (GE Healthcare). HBS-EP+ (GE Healthcare) was used as the running buffer, and the measurement temperature was set to 25° C. Chips produced by immobilizing the antigen peptide by the amine coupling method to a Series S Sencor Chip CM5 (GE Healthcare), or alternatively, chips produced by allowing preliminarily biotinylated antigen peptides to interact with and immobilize onto a Series S Sensor Chip SA (certified) (GE Healthcare) were used. Antibodies of interest were captured onto an antigen peptide-immobilized chip, and allowed to interact to each FcγR diluted with running buffer. To regenerate and repeatedly use the chip, the antibodies captured on the chip were washed off by reacting 10 mM glycine-HCl, pH 1.5.

FcγRIIb = molecular target: T2, FcγRIIb; experiment: as above
Method: as §1, §2

Row | He_2aH/2b (IIaH/IIb ratio) (FcγRIIa H [1]) | He/Con_2aH (relative binding) (FcγRIIa H [2]) [%] | He/Con_2b (relative binding) (FcγRIIb) [%] | Binder
1 | 1.23 | 86.9 | 70.6 | B1
2 | 1.54 | 74.4 | 48.4 | B2
3 | 1.45 | 108 | 74.5 | B3
4 | 1.24 | 105 | 84.3 | B4
5 | 1.29 | 82.1 | 63.5 | B5
6 | 1.28 | 61.6 | 48.1 | B6
7 | 1.24 | 91 | 73.3 | B7
8 | 1.33 | 98 | 73.9 | B8
9 | 1.3 | 66.9 | 51.6 | B9
10 | 1.26 | 98.5 | 77.9 | B10
11 | 1.22 | 58 | 47.6 | B11
12 | 1.35 | 93.5 | 69.2 | B12
13 | 1.47 | 108 | 73.6 | B13
14 | 1.21 | 49.9 | 41.1 | B14
